# Test results from US20240166754A1 (SYNTHEKINE, published 2024).
# Positions count from the first letter of the chain named.
# B1: hIL12Rb1_VHH22 (VHH)
# VHH: QVQLQESGGGSVQAGGSLRLSCTASGYTYSSAFMAWFRQAPGKEREGVAAIYTRDGGTVYADSVKGRFTISQDNAKNTLYLQMNSLKAEDTAMYYCAAKIPQPGRASLLDSQTYDYWGQGTQVTVSS
# notes: Camel VHH
# B2: hIL12Rb1_VHH2 (VHH)
# VHH: B1 VHH with T78I
# notes: Camel VHH
# B3: hIL12Rb1_VHH20 (VHH)
# VHH: B1 VHH with G57S, T58P, V64L, Y80H, A88P, Q102E, A106I, Q119H
# notes: Camel VHH
# B4: hIL12Rb1_VHH21 (VHH)
# VHH: B1 VHH with I51M, A88T
# notes: Camel VHH
# B5: hIL12Rb1_VHH16 (VHH)
# VHH: B1 VHH with I51M, M83I, N84H, S85T
# notes: Camel VHH
# B6: hIL12Rb1_VHH12 (VHH)
# VHH: B1 VHH with A88P, I100M
# notes: Camel VHH
# B7: hIL12Rb1_VHH15 (VHH)
# VHH: QVQLQESGGGSVQAGGSLRLSCAVSGYDYCGYDVRWYRQAPGKEREFVSGINSDGSTSYADSVKGRFTISQDNAENTSYLHMFSLKPEDTAMYYCKTESPAGESAWCRNFRGMDYWGKGTQVTVSS
# notes: Camel VHH
# B8: hIL12Rb1_VHH11 (VHH)
# VHH: B7 VHH with N52D
# notes: Camel VHH
# B9: hIL12Rb1_VHH19 (VHH)
# VHH: B7 VHH with S99G
# notes: Camel VHH
# B10: hIL12Rb1_VHH6 (VHH)
# VHH: QVQLQESGGGSVQAGGSLRLSCAASRYTYTNNFMAWFRQAPGKEREGVAAIYTGDGYAYYFYSVKGRFTISQDNDENMLYLQMNSLKPEDTAMYYCAAMERRIGTRRMTENAEYKYWGQGTQVTVSS
# notes: Camel VHH
# B11: hIL12Rb1_VHH18 (VHH)
# VHH: B10 VHH with Y62D, E76K, I103S, T105R
# notes: Camel VHH
# B12: hIL12Rb1_VHH17 (VHH)
# VHH: QVQLQESGGGSVQAGGFLRLSCVASGYGYCGYDMSWYRQVPGKEREFVALITSDRSVSYEDSVKGRFSISRDNAKNTAYLEMNRLTPDDTAIYYCKTSTAARENNWCRSRYRIASWGQGTQVTVSS
# notes: Camel VHH
# B13: hIL12Rb1_VHH4 (VHH)
# VHH: QVQLQESGGGSVQAGGSLRLSCVASGYGYCGYDMSWYRQTPGKEREFVALITSDRIASYEDSVKGRFIISRDNAKNTGYLDMTRVTPDDTAIYYCKTSAAARENSWCRSRYRVASWGQGTQVTVSS
# notes: Camel VHH
# B14: hIL12Rb1_VHH13 (VHH)
# VHH: B12 VHH with V40A, D54E, S56V, V57I, K75E, A78G, T99A, N104S, N105S, I113V
# notes: Camel VHH
# B15: hIL12Rb1_VHH5 (VHH)
# VHH: B12 VHH with I92V, S115Y
# notes: Camel VHH
# B16: hIL12Rb1_VHH3 (VHH)
# VHH: QVQLQESGGGSVQAGGSLRLSCVASGYSYCGYDMMWYRQAPGKEREFVALITSDYSIRYEDSVEGRFSISRDNAKNTGYLLMSNLTPADTAIYYCKTSTAARESSWCRSRYRVASWGQGTQVTVSS
# notes: Camel VHH
# B17: hIL12Rb1_VHH8 (VHH)
# VHH: B16 VHH
# notes: Camel VHH
# B18: hIL12Rb1_VHH9 (VHH)
# VHH: B16 VHH with S105G
# notes: Camel VHH
# Biological target: T1, extracellular domain of human IL12RB1 (hIL12Rb1 ECD antigen) (human, UniProt P42701 24-545)
# T1 construct: also called IL12Rβ1; CD212
# Experiment: periplasmic extract ELISA on antigen-coated plate after phage biopanning
# Description: Upon completion of the biopanning of Example 3, three 96-well plates of individual phage clones were isolated in order to perform periplasmic extract ELISA (PE-ELISA) on IL12Rb1 coated plates to identify positive VHH binders that selectively bound IL12Rb1. A 96-well plate was coated with IL12Rb1 and PBS under the same conditions. Next, wells were blocked at 37° ° C. for 1 h. Then, 100 μl of extracted antibodies was added to each well and incubated for 1 h. Subsequently, 100 μl of anti-tag polyclonal antibody conjugated to HRP was added to each well and incubated at 37 °C for 1 h. Plates were developed with TMB substrate. The reaction was stopped by the addition of H2SO4. Absorbance at 450 nm was read on a microtiter plate reader. Antibodies with absorbance of the antigen-coated well at least threefold greater than PBS-coated control are VHHs that specifically bind to IL12Rb1. Positive clones were sequenced, and sequences analyzed to identify unique clonotypes.
row,Binder,binding result
1,B1,binds
2,B2,binds
3,B3,binds
4,B4,binds
5,B5,binds
6,B6,binds
7,B7,binds
8,B8,binds
9,B9,binds
10,B10,binds
11,B11,binds
12,B12,binds
13,B13,binds
14,B14,binds
15,B15,binds
16,B16,binds
17,B17,binds
18,B18,binds
